PMC2768864

Target: Ixodes ricinus contact phase inhibitor (Ir-CPI) (Ixodes ricinus) (UniProt Q9GP15)
Experiment: SPR

Chain of Ixodes ricinus contact phase inhibitor (Ir-CPI) (Ixodes ricinus) (Q9GP15 20-86): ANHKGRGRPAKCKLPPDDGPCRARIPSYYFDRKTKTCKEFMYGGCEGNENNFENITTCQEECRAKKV

For plasmin (enzyme), the Ka was 3.3e+08 M⁻¹, the ka1 (two-state model, formation of AB) was 900000 M⁻¹ s⁻¹ and the ka2 (two-state model, forward conformation change) was 0.00582 s⁻¹. For the same substance, the kd1 (two-state model, dissociation of AB) was 0.00535 s⁻¹ and the kd2 (two-state model, backward conformation change) was 0.00614 s⁻¹.
